Here are results for three molecules from publication PMC11327110 (2024).

In experiment [1] the target is T1, proteasome subunit α3 (PSMA4) (Homo sapiens (Human), UniProt P25789).
T1 chain: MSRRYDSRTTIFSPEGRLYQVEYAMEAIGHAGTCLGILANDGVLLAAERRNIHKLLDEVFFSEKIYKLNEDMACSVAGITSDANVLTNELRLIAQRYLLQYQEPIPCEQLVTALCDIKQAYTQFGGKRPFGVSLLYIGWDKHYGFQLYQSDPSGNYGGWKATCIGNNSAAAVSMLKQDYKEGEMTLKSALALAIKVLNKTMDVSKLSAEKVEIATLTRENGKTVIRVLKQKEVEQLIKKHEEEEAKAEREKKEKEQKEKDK
The experiment in a line: cryo-EM structure of co-purified complex; contact seen only within structure 1 (complete α-ring, PAC1/PAC2, POMP, β2); pair not tested in isolation.

The target in experiment [2] is T1, proteasome subunit α3 (PSMA4). The experiment in a line: cryo-EM structure of co-purified complex; contact seen within the assembled multi-subunit intermediate; isolated pair only cited from earlier yeast two-hybrid.
Experiment [3] addresses T2, proteasome subunit α2 (PSMA2) (Homo sapiens (Human), UniProt P25787).
T2 chain: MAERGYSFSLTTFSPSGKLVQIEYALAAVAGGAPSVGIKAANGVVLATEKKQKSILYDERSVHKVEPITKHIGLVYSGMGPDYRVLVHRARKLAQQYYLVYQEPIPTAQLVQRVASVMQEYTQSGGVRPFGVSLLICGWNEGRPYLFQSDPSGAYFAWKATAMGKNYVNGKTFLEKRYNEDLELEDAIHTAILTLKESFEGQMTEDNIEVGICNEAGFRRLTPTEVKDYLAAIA
Put plainly: cryo-EM structure of co-purified complex; contact seen only within the assembled multi-subunit intermediate (complete α-ring, POMP, β2); pair not tested in isolation.

The target in experiment [4] is T3, proteasome subunit α4 (PSMA7) (Homo sapiens (Human), UniProt O14818).
T3 chain: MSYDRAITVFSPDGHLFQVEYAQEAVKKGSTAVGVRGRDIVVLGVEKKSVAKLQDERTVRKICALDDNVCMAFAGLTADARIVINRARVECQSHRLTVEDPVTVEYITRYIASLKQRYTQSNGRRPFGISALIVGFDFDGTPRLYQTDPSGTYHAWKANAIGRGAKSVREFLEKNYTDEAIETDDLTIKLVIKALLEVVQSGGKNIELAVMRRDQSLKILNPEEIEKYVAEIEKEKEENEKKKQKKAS
Described as above.

The target of experiment [5] is T4, proteasome subunit α7 (PSMA3) (Homo sapiens (Human), UniProt P25788).
T4 chain: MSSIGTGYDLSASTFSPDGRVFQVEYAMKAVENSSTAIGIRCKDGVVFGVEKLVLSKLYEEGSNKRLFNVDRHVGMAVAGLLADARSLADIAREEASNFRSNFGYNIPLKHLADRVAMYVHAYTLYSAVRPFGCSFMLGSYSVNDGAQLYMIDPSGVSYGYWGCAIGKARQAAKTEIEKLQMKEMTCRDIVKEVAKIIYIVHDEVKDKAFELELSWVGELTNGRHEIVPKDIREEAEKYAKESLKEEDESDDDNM
The experiment in a line: cryo-EM structure of co-purified complex; contact seen only within the assembled multi-subunit intermediate (PAC2 C-terminus in α6-α7 pocket); pair not tested in isolation.

Experiment [6] deals with T5, proteasome subunit α5 (PSMA5) (Homo sapiens (Human), UniProt P28066).
T5 chain: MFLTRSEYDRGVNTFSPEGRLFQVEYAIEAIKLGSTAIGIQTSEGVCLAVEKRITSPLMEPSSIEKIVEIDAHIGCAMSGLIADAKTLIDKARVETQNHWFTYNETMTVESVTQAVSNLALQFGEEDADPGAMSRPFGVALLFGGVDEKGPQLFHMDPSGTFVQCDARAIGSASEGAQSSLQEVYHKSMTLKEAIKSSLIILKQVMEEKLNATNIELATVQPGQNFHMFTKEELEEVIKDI
The experiment in a line: cryo-EM structure of co-purified complex; contact seen within the assembled multi-subunit intermediate (complete α-ring, POMP, β2); isolated pair only cited from earlier work.

Experiment [7] addresses proteasome subunit α6 (PSMA1) (Homo sapiens (Human), UniProt P25786). The experiment in a line: cryo-EM structure of co-purified complex; contact seen only within the assembled multi-subunit intermediate (HbYX motifs in α5-α6 and α6-α7 pockets); pair not tested in isolation.

Chain of proteasome subunit α6 (PSMA1) (P25786 whole entry): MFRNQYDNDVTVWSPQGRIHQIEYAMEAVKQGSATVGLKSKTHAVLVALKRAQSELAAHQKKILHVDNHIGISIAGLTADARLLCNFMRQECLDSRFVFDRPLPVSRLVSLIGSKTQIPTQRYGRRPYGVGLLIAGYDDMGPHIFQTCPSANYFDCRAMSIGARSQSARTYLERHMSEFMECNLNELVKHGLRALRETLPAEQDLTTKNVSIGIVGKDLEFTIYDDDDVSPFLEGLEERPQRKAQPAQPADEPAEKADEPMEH

B1: PAC3–PAC4 heterodimer (protein)
chain 1: MEDTPLVISKQKTEVVCGVPTQVVCTAFSSHILVVVTQFGKMGTLVSLEPSSVASDVSKPVLTTKVLLGQDEPLIHVFAKNLVAFVSQEAGNRAVLLAVAVKDKSMEGLKALREVIRVCQVW
chain 2: MEGLVVAAGGDVSLHNFSARLWEQLVHFHVMRLTDSLFLWVGATPHLRNLAVAMCSRYDSIPVSTSLLGDTSDTTSTGLAQRLARKTNKQVFVSYNLQNTDSNFALLVENRIKEEMEAFPEKF
With B1, the binding result in experiment [1] is “binds”.

B2: proteasome maturation protein (POMP) (protein)
chain: MNARGLGSELKDSIPVTELSASGPFESHDLLRKGFSCVKNELLPSHPLELSEKNFQLNQDKMNFSTLRNIQGLFAPLKLQMEFKAVQQVQRLPFLSSSNLSLDVLRGNDETIGFEDILNDPSQSEVMGEPHLMVEYKLGLL
For the molecule B2, in experiment [2], the binding result was “binds”.

B3: PAC1–PAC2 heterodimer (protein)
chain 1: MAATFFGEVVKAPCRAGTEDEEEEEEGRRETPEDREVRLQLARKREVRLLRRQTKTSLEVSLLEKYPCSKFIIAIGNNAVAFLSSFVMNSGVWEEVGCAKLWNEWCRTTDTTHLSSTEAFCVFYHLKSNPSVFLCQCSCYVAEDQQYQWLEKVFGSCPRKNMQITILTCRHVTDYKTSESTGSLPSPFLRALKTQNFKDSACCPLLEQPNIVHDLPAAVLSYCQVWKIPAILYLCYTDVMKLDLITVEAFKPILSTRSLKGLVKNIPQSTEILKKLMTTNEIQSNIYT
chain 2: MFVPCGESAPDLAGFTLLMPAVSVGNVGQLAMDLIISTLNMSKIGYFYTDCLVPMVGNNPYATTEGNSTELSINAEVYSLPSRKLVALQLRSIFIKYKSKPFCEKLLSWVKSSGCARVIVLSSSHSYQRNDLQLRSTPFRYLLTPSMQKSVQNKIKSLNWEEMEKSRCIPEIDDSEFCIRIPGGGITKTLYDESCSKEIQMAVLLKFVSEGDNIPDALGLVEYLNEWLQILKPLSDDPTVSASRWKIPSSWRLLFGSGLPPALF
Turning to B3, the binding result in experiment [3], in experiment [4], in experiment [5], in experiment [6] and in experiment [7] was “binds” each time.
